# Measured values reported in patent US12473560 (FLAGSHIP PIONEERING INNOVATIONS VI, dated 2025).
# Target: soluble G614 HexaPro spike ectodomain (SARS-CoV-2, UniProt P0DTC2 14-1208)
row,Binder,Kd [nM]
1,"AB-1 full-length IgG1 (antibody, V domains shown) VH: EVQLEESGTVLARPGASVKMSCKASGYTFTTYWMHWIKQRPGQGLEWIGAIYPGNSDTQYNQKFKDKAKLTAVKSTSSAYMELSSLTNEDSAVYFCTREGIPQLLRTLDYWGQGTSVTVSS VL: DILMTQSPSSLSASLGERVSLTCRASQEISGYLSWLQEKPDGTIKRLIYAASTLDSGVPKRFSGSRSGSDYSLTISSLESEDFADYYCLQYLSYPWTFGGGTKLEIK",0.389
2,"AB-2 full-length IgG1 (antibody, V domains shown) VH: EVQLEESGTVLARPGASVKMSCKASGYTFTTYWMHWIKQRPGQGLEWIGAIYPGNGDTNYNQKFKDKAKLTAVKSTSSAYMELSSLTNEDSAVYFCTREGIPQLLRTLDYWGQGTSVTVSS VL: DILMTQSPSSLSASLGERVSLTCRASQEISGYLSWLQEKPDGTIKRLIYAASTLDSGVPKRFSGSRSGSDYSLTISSLESEDFADYYCLQYLSYPWTFGGGTKLEIK",1.69
3,"AB-7 full-length IgG1 (antibody, V domains shown) VH: EVQLEESGTVLARPGASVKMSCKASGYTFTSYWMHWIKQRPGQGLEWIGAIYPGNSDTNYNQKFKDKAKLTAVKSTSSAYMELSSLTNEDSAVYFCTREGIPQLLRSLDYWGQGTSVTVSS VL: DILMTQSPSSLSASLGERVSLTCRASQEISGYLSWLQEKPDGTIKRLIYAASTLDSGVPKRFSGSRSGSDYSLTISSLESEDFADYYCLQYLSYPWTFGGGTKLEIK",2.55
4,"AB-3 full-length IgG1 (antibody, V domains shown) VH: EVQLEESGTVLARPGASVKMSCKASGYTFTTYWMHWIKQRPGQGLEWIGAIYPGNGDTNYNQKFKDKAKLTAVKSTSSAYMELSSLTNEDSAVYFCTREGIPQKLRTLDVWGQGTSVTVSS VL: DILMTQSPSSLSASLGERVSLTCRASQEISGYLSWLQEKPDGTIKRLIYAASTLDSGVPKRFSGSRSGSDYSLTISSLESEDFADYYCLQYLSYPWTFGGGTKLEIK",2.07
5,"AB-8 full-length IgG1 (antibody, V domains shown) VH: EVQLEESGTVLARPGASVKMSCKASGYTFTTYWMHWIKQRPGQGLEWIGAIYPGNSDTIYNQKFKDKAKLTAVKSTSSAYMELSSLTNEDSAVYFCTREGIPQLLRTLDYWGQGTSVTVSS VL: DILMTQSPSSLSASLGERVSLTCRASQEISGYLSWLQEKPDGTIKRLIYAASTLDSGVPKRFSGSRSGSDYSLTISSLESEDFADYYCLQYLSYPWTFGGGTKLEIK",1.73
6,"AB-4 full-length IgG1 (antibody, V domains shown) VH: EVQLEESGTVLARPGASVKMSCKASGYTFTTYWMHWIKQRPGQGLEWIGAIYPGNGDTNYNQKFKDKAKLTAVKSTSSAYMELSSLTNEDSAVYFCTREGIPQLLRTFDYWGQGTSVTVSS VL: DILMTQSPSSLSASLGERVSLTCRASQEIGGYLSWLQEKPDGTIKRLIYAASTLDSGVPKRFSGSRSGSDYSLTISSLESEDFADYYCLQYLSYPWTFGGGTKLEIK",1.14
7,"AB-9 full-length IgG1 (antibody, V domains shown) VH: EVQLEESGTVLARPGASVKMSCKASGYTFTSYWMHWIKQRPGQGLEWIGAIYPGNSDTNYNQKFKDKAKLTAVTSTSSAYMELSSLTNEDSAVYFCTREGIPQLLRTLDYWGQGTSVTVSS VL: DILMTQSPSSLSASLGERVSLTCRASQEISGYLSWLQEKPDGTIKRLIYAASTLDSGVPKRFSGSRSGSDYSLTISSLESEDFADYYCLQYLSYPWTFGGGTKLEIK",1.2
8,"AB-5 full-length IgG1 (antibody, V domains shown) VH: EVQLEESGTVLARPGASVKMSCKASGYTFTSYWMHWIKQRPGQGLEWIGAIYPGNGDTNYNQKFKDKAKLTAVKSTSSAYMELSSLTNEDSAVYFCTREGIPQLLNTLDVWGQGTSVTVSS VL: DILMTQSPSSLSASLGERVSLTCRASQEISGYLSWLQEKPDGTIKRLIYAASTLDSGVPKRFSGSRSGSDYSLTISSLESEDFADYYCQQYLSYPWTFGGGTKLEIK",2.09
9,"AB-6 full-length IgG1 (antibody, V domains shown) VH: EVQLEESGTVLARPGASVKMSCKASGYTFTSYWMHWIKQRPGQGLEWIGAIYPGNSDTNYNQKFKDKAKLTAVKSTSSAYMELSSLTNEDSAVYFCTREGIPQLTRTLDYWGQGTSVTVSS VL: DILMTQSPSSLSASLGERVSLTCRASQEISGYLSWLQEKPDGTIKRLIYAASTLDSGVPKRFSGSRSGSDYSLTISSLESEDFADYYCLQYLSYPWTFGGGTKLEIK",0.628
